Measurements taken from publication PMC4369733, “Design of a PDZbody, a bivalent binder of the E6 protein from human papillomavirus” (Scientific Reports, 2015).

T1: pseudo wild type SAP97 PDZ2 (residues 311-407; I342W, C378A) (human, UniProt Q12959 311-407, I342W | C378A)
T1 construct: SAP97 (also called human Dlg), second PDZ domain (PDZ2), residues 311-407; Residues of the thrombin site probably stay at the N-terminus after cleavage (surmised); also called pWT; source: E. coli BL21(DE3) pLysS, purified (nickel-Sepharose, thrombin digestion, nickel reload, Source 30Q); not shown: His tag, N-terminal, cleaved; lipoyl protein domain (Bacillus stearothermophilus), N-terminal, …
T1 sequence (looked up): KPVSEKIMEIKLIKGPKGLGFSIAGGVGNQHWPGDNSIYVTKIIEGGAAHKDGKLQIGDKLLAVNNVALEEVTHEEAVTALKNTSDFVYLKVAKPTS

B1: Lipo-E6_(18)-C: C-terminal domain of HPV18 E6 (residues 82-158) linked via the N-terminus to His-tagged lipoyl domain (domain or fragment)
chain: SDSVYGDTLEKLTNTGLYNLLIRCLRCQKPLNPAEKLRHLNEKRRFHNIAGHYRGQCHSCCNRARQERLQRRRETQV
notes: HPV18 E6 C-terminal domain, residues 82-158, UniProtKB P06463; A thrombin cleavage site (LVPRGS) stands between the lipoyl domain and the E6 domain and was not cut; also called HPV18 E6 C-terminal domain; source: E. coli BL21(DE3) pLysS, purified (nickel-Sepharose, Source 30Q; thrombin digestion omitted); not shown: His tag, N-terminal, kept; lipoyl protein domain (Bacillus stearothermophilus), …

Columns and labels:
[1] = biological target: Lipo-E6_(18)-C: C-terminal domain of HPV18 E6 (residues 82-158) linked via the N-terminus to His-tagged lipoyl domain (HPV18) (UniProt P06463); assay: stopped-flow fluorescence kinetics; association: PDZ variant (6-20 µM) mixed with Lipo-E6_(18)-C (2 µM), Trp342 emission; 10°C, 50 mM potassium phosphate pH 7.5, 240 µM β-mercaptoethanol; kon from kobs versus PDZ concentration; Kd = koff/kon
[2] = biological target: Lipo-E6_(18)-C: C-terminal domain of HPV18 E6 (residues 82-158) linked via the N-terminus to His-tagged lipoyl domain (HPV18) (UniProt P06463); assay: stopped-flow fluorescence kinetics; displacement: pre-formed complex of PDZ variant (0.75 µM) and Lipo-E6_(18)-C (0.75 µM) mixed with dansylated peptide (20, 150 and 300 µM); 10°C, 50 mM potassium phosphate pH 7.5, 240 µM β-mercaptoethanol; koff = kobs at high peptide
[3] = biological target: PDZbody25 (E6AP helix, Gly-Ser linker of 20 residues, PDZϕ9) (UniProt Q12959); assay: ITC; full-length HPV16 E6 titrated into the PDZ variant or PDZbody; ITC200, 25°C, 20 mM sodium phosphate pH 6.8, 200 mM NaCl, 1 mM TCEP; single-site model
[4] = biological target: pseudo wild type SAP97 PDZ2 (residues 311-407; I342W, C378A) (human) (UniProt Q12959); assay: as above
[5] = biological target: PDZbody8 (E6AP helix, Gly-Ser linker of 3 residues, PDZϕ9) (UniProt Q12959); assay: as above
[6] = biological target: PDZbody15 (E6AP helix, Gly-Ser linker of 10 residues, PDZϕ9) (UniProt Q12959); assay: as above
[7] = biological target: PDZϕ9 (SAP97 PDZ2 pseudo wild type with L391F, K392M) (human) (UniProt Q12959); assay: as above
[8] = biological target: PDZbody20 (E6AP helix, Gly-Ser linker of 15 residues, PDZϕ9) (UniProt Q12959); assay: as above
[9] = biological target: T1, pseudo wild type SAP97 PDZ2 (residues …); assay: stopped-flow fluorescence kinetics; displacement: pre-formed complex of PDZ variant (0.75 µM) and Lipo-E6_(18)-C (0.75 µM) mixed with dansylated peptide (20, 150 and 300 µM); 10°C, 50 mM potassium phosphate pH 7.5, 240 µM β-mercaptoethanol; koff = kobs at high peptide; conditions: both partners purified
[10] = biological target: T1, pseudo wild type SAP97 PDZ2 (residues …); assay: stopped-flow fluorescence kinetics; association: PDZ variant (6-20 µM) mixed with Lipo-E6_(18)-C (2 µM), Trp342 emission; 10°C, 50 mM potassium phosphate pH 7.5, 240 µM β-mercaptoethanol; kon from kobs versus PDZ concentration; Kd = koff/kon; conditions: both partners purified

Molecule	Kd [1]	kon [1]	koff [2]	further results
PDZϕ1 (SAP97 PDZ2 pseudo wild type with E385R) (from UniProt Q12959 311-407) (designed binder)	920 nM	8.2e+06 M⁻¹ s⁻¹	7.5 s⁻¹	–
PDZϕ2 (SAP97 PDZ2 pseudo wild type with E385H, L391F, K392Q) (from UniProt Q12959 311-407) (designed binder)	260 nM	5.9e+06 M⁻¹ s⁻¹	1.5 s⁻¹	–
PDZϕ3 (SAP97 PDZ2 pseudo wild type with L391F, K392A) (from UniProt Q12959 311-407) (designed binder)	160 nM	4.6e+06 M⁻¹ s⁻¹	0.75 s⁻¹	–
PDZϕ4 (SAP97 PDZ2 pseudo wild type with E385H, K392R) (from UniProt Q12959 311-407) (designed binder)	600 nM	8.5e+06 M⁻¹ s⁻¹	5.1 s⁻¹	–
PDZϕ5 (SAP97 PDZ2 pseudo wild type with E385H, K392T) (from UniProt Q12959 311-407) (designed binder)	780 nM	4.9e+06 M⁻¹ s⁻¹	3.8 s⁻¹	–
PDZϕ6 (SAP97 PDZ2 pseudo wild type with E385K, K392Q) (from UniProt Q12959 311-407) (designed binder)	2500 nM	4e+06 M⁻¹ s⁻¹	10.2 s⁻¹	–
PDZϕ7 (SAP97 PDZ2 pseudo wild type with E385K, K392R) (from UniProt Q12959 311-407) (designed binder)	610 nM	8.9e+06 M⁻¹ s⁻¹	5.5 s⁻¹	–
PDZϕ8 (SAP97 PDZ2 pseudo wild type with E385T) (from UniProt Q12959 311-407) (designed binder)	660 nM	5.8e+06 M⁻¹ s⁻¹	3.8 s⁻¹	–
PDZϕ9 (SAP97 PDZ2 pseudo wild type with L391F, K392M) (from UniProt Q12959 311-407) (designed binder)	93 nM	5.9e+06 M⁻¹ s⁻¹	0.55 s⁻¹	–
full-length HPV16 E6 (from UniProt P03126 1-158) (natural protein)	–	–	–	Kd [3]: 79 nM; dH [3]: -19.8 kcal/mol; stoichiometry N [3]: 0.92; Kd [4]: 6300 nM; dH [4]: -4.6 kcal/mol; stoichiometry N [4]: 0.75; Kd [5]: 200 nM; dH [5]: -19.1 kcal/mol; stoichiometry N [5]: 0.76; Kd [6]: 160 nM; dH [6]: -16.5 kcal/mol; stoichiometry N [6]: 0.93; Kd [7]: 910 nM; dH [7]: -9.9 kcal/mol; stoichiometry N [7]: 0.75; Kd [8]: 65 nM; dH [8]: -17 kcal/mol; stoichiometry N [8]: 0.94
B1	–	–	–	koff [9]: 3.3 s⁻¹; Kd [10]: 540 nM; kon [10]: 6.2e+06 M⁻¹ s⁻¹
